Test results taken from patent US6995244 (OHIO STATE UNIVERSITY, dated 2006).
Substitutions are numbered along the chain they refer to. Names and notes keep the numbering of the source. Each block holds one molecule with its values, some of them ahead of it.

How the values were obtained:
[1] = target: growth hormone receptor (FDC-P1 somatotrophic assay); assay: cell-based or functional assay
[2] = target: human prolactin receptor on transfected FDC-P1 cells (human) (UniProt P16471); assay: cell-based or functional assay
[3] = target: T1, human prolactin receptor on transfected FDC-P1 cells (human, UniProt P16471 25-622); assay: cell-based or functional assay
T1 sequence (looked up): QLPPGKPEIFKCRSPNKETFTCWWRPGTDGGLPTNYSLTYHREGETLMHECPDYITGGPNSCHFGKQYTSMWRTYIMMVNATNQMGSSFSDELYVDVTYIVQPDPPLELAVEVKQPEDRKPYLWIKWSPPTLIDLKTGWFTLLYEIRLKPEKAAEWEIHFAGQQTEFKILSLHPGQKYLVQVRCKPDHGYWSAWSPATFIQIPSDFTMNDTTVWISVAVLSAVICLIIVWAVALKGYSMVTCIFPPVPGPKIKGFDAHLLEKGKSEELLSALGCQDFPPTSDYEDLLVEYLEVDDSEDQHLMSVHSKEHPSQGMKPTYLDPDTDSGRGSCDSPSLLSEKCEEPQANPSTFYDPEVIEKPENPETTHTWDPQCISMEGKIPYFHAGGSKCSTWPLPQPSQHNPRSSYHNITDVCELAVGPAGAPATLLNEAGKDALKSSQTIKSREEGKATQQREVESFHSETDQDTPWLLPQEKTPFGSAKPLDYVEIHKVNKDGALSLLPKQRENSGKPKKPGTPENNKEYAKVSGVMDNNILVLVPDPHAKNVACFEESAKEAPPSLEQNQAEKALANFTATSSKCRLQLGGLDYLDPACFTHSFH

[4] = target: T2, extracellular domain of the human prolactin receptor (human, UniProt P16471 25-234); assay: SPR (BIACORE 3000), prolactin coupled to the chip through Cys 158, receptor ECD 50-800 nM, induced-fit model, site 1 (ka1)
T2 construct: extracellular domain; also called extracellular domain of the human lactogenic receptor; lactogenic receptor
T2 sequence (looked up): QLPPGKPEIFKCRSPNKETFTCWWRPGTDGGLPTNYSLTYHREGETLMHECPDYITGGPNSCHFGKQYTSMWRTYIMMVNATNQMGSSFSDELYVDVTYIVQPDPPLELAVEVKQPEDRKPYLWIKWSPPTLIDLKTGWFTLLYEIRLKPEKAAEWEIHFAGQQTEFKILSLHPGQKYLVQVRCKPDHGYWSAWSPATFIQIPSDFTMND
Experimental: (§1) The extracellular domain of the human lactogenic receptor was flowed across the prolactin-linked chip surface at various concentrations and the binding kinetics followed by the optical bench. Human lactogenic receptor (extracellular domain) concentrations varied between 50 nM and 800 nM. […] A single receptor model was used for G129C human prolactin, where site 2 was blocked by the chemistry employed to couple the protein to the chip surface.
(§2) Rate constants were calculated from the association and dissociation curves, respectively, with concentrations of the extracellular domain of the human lactogenic receptor (50, 80, 100, 200, 500 and 800 nM).

[5] = target: T2, extracellular domain of the human …; assay: SPR (BIACORE 3000), prolactin coupled to the chip through Cys 158, receptor ECD 50-800 nM, induced-fit model, site 2 (kd2)
Experimental: as §1, §2

[6] = target: T2, extracellular domain of the human …; assay: SPR (BIACORE 3000), prolactin coupled to the chip through Cys 158, receptor ECD 50-800 nM, induced-fit model, site 2 (ka2)
Experimental: as §1, §2

[7] = target: T2, extracellular domain of the human …; assay: SPR, saturating equilibrium at 100 µM receptor ECD (FIG. 10, lower panel)
Experimental: Experiments were then performed in studies that measured the maximal binding of lactogenic receptor (the extracellular domain of the prolactin receptor prepared by recombinant DNA technology). The various prolactins were bound with high concentrations (100 μM) of extracellular domain of the human prolactin receptor.

[8] = target: T2, extracellular domain of the human …; assay: SPR (BIACORE 3000), prolactin coupled to the chip through Cys 158, receptor ECD 50-800 nM, induced-fit model, site 2 (KD2)
Experimental: as §1, §2

[9] = target: T2, extracellular domain of the human …; assay: SPR (BIACORE 3000), prolactin coupled to the chip through Cys 158, receptor ECD 50-800 nM, induced-fit model, site 1 (KD1)
Experimental: as §1, §2

[10] = target: T2, extracellular domain of the human …; assay: SPR (BIACORE 3000), prolactin coupled to the chip through Cys 158, receptor ECD 50-800 nM, induced-fit model, site 1 (kd1); site 1 (kd1), prolactin coupled through Cys 158
Experimental: as §1, §2

[11] = target: T2, extracellular domain of the human …; assay: SPR (BIACORE 3000), prolactin coupled to the chip through residue 129 (site 2 blocked), receptor ECD 50-800 nM, single-site model, site 1 (KD1)
Experimental: as §1, §2

[12] = target: T2, extracellular domain of the human …; assay: SPR (BIACORE 3000), prolactin coupled to the chip through residue 129 (site 2 blocked), receptor ECD 50-800 nM, single-site model, site 1 (kd1)
Experimental: as §1, §2

[13] = target: T2, extracellular domain of the human …; assay: SPR (BIACORE 3000), prolactin coupled to the chip through residue 129 (site 2 blocked), receptor ECD 50-800 nM, single-site model, site 1 (ka1)
Experimental: as §1, §2

Molecule: L163A human growth hormone (from UniProt P01241 27-217) (ligand)
- ED50 (nM), FDC-P1 somatotrophic assay [1]: 0.13 nM

Molecule: L163F human growth hormone (from UniProt P01241 27-217) (ligand)
- ED50 (nM), FDC-P1 somatotrophic assay [1]: 0.235 nM

Molecule: F44E human growth hormone (from UniProt P01241 27-217) (ligand)
- ED50 (nM), FDC-P1 somatotrophic assay [1]: 0.576 nM

Molecule: L93E human growth hormone (from UniProt P01241 27-217) (ligand)
- ED50 (nM), FDC-P1 somatotrophic assay [1]: 0.234 nM

Molecule: Y160E human growth hormone (from UniProt P01241 27-217) (ligand)
- ED50 (nM), FDC-P1 somatotrophic assay [1]: 0.186 nM

B1: L98E human prolactin (ligand)
chain: MLPICPGGAARCQVTLRDLFDRAVVLSHYIHNLSSEMFSEFDKRYTHGRGFITKAINSCHTSSLATPEDKEQAQQMNQKDFLSLIVSILRSWNEPLYHEVTEVRGMQEAPEAILSKAVEIEEQTKRLLEGMELIVSQVHPETKENEIYPVWSGLPSLQMADEESRLSAYYNLLHCLRRDSHKIDNYLKLLKCRIIHNNNC
- ED50 (nM), FDC-P1 lactogenic assay (cell proliferation, Alamar blue) [3]: 63.1 nM
- Relative fold loss of activity, FDC-P1 lactogenic assay [3]: 87.7 fold

B2: L95E human prolactin (ligand)
chain: B1 chain with L96E, E99L
- ED50 (nM), FDC-P1 lactogenic assay (cell proliferation, Alamar blue) [3]: 5.6 nM
- Relative fold loss of activity, FDC-P1 lactogenic assay [3]: 7.8 fold

B4: M158C human prolactin (ligand)
chain: B1 chain with E99L, M159C
modifications: Cys 158 disulfide-coupled through a thiol to the dextran polymer of the SPR chip surface
notes: Recombinant, expressed in E. coli
- kon [4]: 14300 M⁻¹ s⁻¹
- koff [5]: 0.00039 s⁻¹
- kon [6]: 2560 M⁻¹ s⁻¹
- stoichiometry (receptors bound to each prolactin) [7]: 2 receptors per prolactin
- Kd [8]: 153 nM
- Kd [9]: 109 nM
- koff [10]: 0.00157 s⁻¹

B6: F50E human prolactin (ligand)
chain: B1 chain with F51E, E99L
- ED50 (nM), FDC-P1 lactogenic assay (cell proliferation, Alamar blue) [3]: 1 nM
- Relative fold loss of activity, FDC-P1 lactogenic assay [3]: 5 fold

B9: G129C human prolactin (ligand)
chain: B1 chain with E99L, G130C
modifications: Cys 129 disulfide-coupled through a thiol to the dextran polymer of the SPR chip surface
notes: Recombinant, E. coli
- Kd [11]: 60.5 nM
- koff [12]: 0.00119 s⁻¹
- kon [13]: 19600 M⁻¹ s⁻¹
- stoichiometry (receptors bound to each prolactin) [7]: ~1 receptors per prolactin

Second part, the molecule after the results:

- ED50 (nM), FDC-P1 somatotrophic assay [1]: 0.151 nM
Molecule: Y164E human growth hormone (from UniProt P01241 27-217) (ligand)

- ED50 (nM), FDC-P1 lactogenic assay [2]: 1.76 nM
- ED50 (nM), FDC-P1 somatotrophic assay [1]: 0.0712 nM
Molecule: wild-type recombinant human growth hormone (from UniProt P01241 27-217) (ligand)

- ED50 (nM), FDC-P1 lactogenic assay (cell proliferation, Alamar blue) [3]: 29.5 nM
- Relative fold loss of activity, FDC-P1 lactogenic assay [3]: 41 fold
B3: L165E human prolactin (ligand)
chain: B1 chain with E99L, L166E

- ED50 (nM), FDC-P1 lactogenic assay (cell proliferation, Alamar blue) [3]: 64.8 nM
- Relative fold loss of activity, FDC-P1 lactogenic assay [3]: 90 fold
B5: Y169E human prolactin (ligand)
chain: B1 chain with E99L, Y170E

- ED50 (nM), FDC-P1 lactogenic assay (cell proliferation, Alamar blue) [3]: 5.7 nM
- Relative fold loss of activity, FDC-P1 lactogenic assay [3]: 8 fold
B7: L171E human prolactin (ligand)
chain: B1 chain with E99L, L172E

- ED50 (nM), FDC-P1 lactogenic assay (cell proliferation, Alamar blue) [3]: 1130 nM
- Relative fold loss of activity, FDC-P1 lactogenic assay [3]: 1570 fold
B8: H173E human prolactin (ligand)
chain: B1 chain with E99L, H174E

- ED50 (nM), FDC-P1 lactogenic assay (cell proliferation, Alamar blue) [3]: 0.03 nM
- Relative fold loss of activity, FDC-P1 lactogenic assay [3]: 2.7 fold
B10: ΔF50 human prolactin (ligand)
chain: MLPICPGGAARCQVTLRDLFDRAVVLSHYIHNLSSEMFSEFDKRYTHGRGITKAINSCHTSSLATPEDKEQAQQMNQKDFLSLIVSILRSWNEPLYHLVTEVRGMQEAPEAILSKAVEIEEQTKRLLEGMELIVSQVHPETKENEIYPVWSGLPSLQMADEESRLSAYYNLLHCLRRDSHKIDNYLKLLKCRIIHNNNC
